T1: Tah1 (full-length yeast Tah1) (S. cerevisiae, UniProt P25638 1-111)
T1 construct: Tah1, yeast (S. cerevisiae), synthetic full-length gene expressed from pRSET-A; In the crystal two Tah1 chains form a helix-swapped dimer; in solution Tah1 is mainly monomeric; also called TPR domain of Tah1
T1 sequence (looked up): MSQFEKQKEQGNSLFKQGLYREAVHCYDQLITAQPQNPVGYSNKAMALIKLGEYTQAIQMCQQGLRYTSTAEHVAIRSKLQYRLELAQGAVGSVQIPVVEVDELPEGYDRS

T2: Flag-Tah1 (S. cerevisiae, UniProt P25638 1-111)
T2 construct: Tah1, yeast
T2 sequence (looked up): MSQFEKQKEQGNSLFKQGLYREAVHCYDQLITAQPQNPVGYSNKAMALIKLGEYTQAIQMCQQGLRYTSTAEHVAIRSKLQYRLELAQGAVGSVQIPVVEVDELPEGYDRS


Experiments:
[1] = target: T1, Tah1 (full-length yeast Tah1); assay: crystal structure; Tah1 at 10 mg/ml with 5 mM … peptide; sitting drop, 100 mM MES pH 6.0, 200 mM ammonium chloride, 20% PEG 6000, 4°C; refined to 2 Å; conditions: both partners purified
[2] = target: T2, Flag-Tah1; assay: pull-down; 70 µM Flag-Tah1 and Hsp90 600-709 with increasing AIP 172-315 or full-length AIP (5-10 molar excess); 20 mM HEPES pH 7.5, 150 mM NaCl, 10% glycerol, 0.5% IGEPAL, 2 mM EDTA; captured on anti-Flag M2 magnetic beads; eluate on SDS-PAGE; conditions: both partners purified

| binding result [1] | binding result [2] | Binder |
| --- | --- | --- |
| binds | – | EDASRMEEVD (C-terminal peptide of Hsp90 with the conserved MEEVD motif; also called MEEVD peptide of Hsp90; SRMEEVD peptide) [Hsp90 peptide EDASRMEEVD] |
| – | binds | Hsp90 600-709 (domain or fragment, Hsp90 C-terminal fragment, residues 600-709; Used at 70 µM in the pull-down; also called cHsp90) not shown |

Reference: paper PMC4427203, “Tah1 helix-swap dimerization prevents mixed Hsp90 co-chaperone complexes” (Acta Crystallographica Section D: Biological Crystallography, 2015)
